# Results reported in patent publication US20040077542A1 (University of Texas, published 2004).
# Biological target: T1, GST-fusion protein of the second BIR (baculoviral IAP repeat) motif of XIAP (UniProt P98170 124-240)
# T1 construct: also called recombinant IAP fragment; BIR2; not shown: glutathione S-transferase (GST) fusion partner; order of GST and BIR2 not
# Assay: GST pull-down, radiolabeled peptide on GST-BIR2 glutathione resin (Example 9)
# T1 sequence (P98170 124-240): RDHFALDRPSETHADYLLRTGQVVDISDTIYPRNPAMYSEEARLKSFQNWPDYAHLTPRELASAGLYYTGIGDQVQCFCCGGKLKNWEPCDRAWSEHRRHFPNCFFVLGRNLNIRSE
binder,measurement,value
H-KQAIPVA-OH (also called negative control Smac-7R) [Smac-7R: NH2-KQAIPVA-COOH],binding result,no binding
